The data set in a line: label from the status in PepcDB records.
On to “MGLCVSVNRNEYVSSSTTAKIVTINGDLREYDVPVLASQVLESESTSSSSSSSSSSYFLCNSDSLYYDDFIPAIESDEILQANQIYFVLPISKRQYRLSASDMAALAVKASVAIEKAAGKKNRRRRSGRISPVVTLNQANDNRIAAVNNRIGGEATNMMMQKGKLPNRTTPFKDTNGYSRSGSVRKLKRYTSGRAKLAVRSFRLRLSTIYEGSSFN”, for which the protein production result is listed as “failed”. The value for “MGLFDFLKKGLQKTKETFFGRVVKLLKGKKLDDETREELEELLIQADVGVETTEYILERLEEKDGDALESLKEIILEILNFDTKLNVPPEPPFVIMVVGVNGTGKTTSCGKLAKMFVDEGKSVVLAAADTFRAAAIEQLKIWGERVGATVISHSEGADPAAVAFDAVAHALARNKDVVIIDTAGRLHTKKNLMEELRKVHRVVKKKIPDAPHETLLVIDATTGQNGLVQAKIFKEAVNVTGIILTKLDGTAKGGITLAIARELGIPIKFIGVGEKAEDLRPFDPEAFVEVLLSE” was “not failed”.

Regarding “MGLFLEDLAVGDRFDSARHRVEAAAIKAFAGEFDPQPFHLDEEAARHSLFGGLAASGWHTAAITMRLLVTSGLPLAQGIIGAGTELSWPNPTRPGDELHVETTVLAITPSKSRPDRAIVTCQSDTLNQRGEVVQRSTAKVVVFRRPLEHHHHHH”, the protein production result is listed as “not failed”.

“MGLFQSDKAAEEIDPPQDVTFVNDEAGANSNTTAAKKTESEKSDTAKADQASSTVMRELYLIDKNGYVVAQTLPLPKSESTAKQALEYLVQGGPVSEILPNGFRAVLPADTTVNVDIKKDGTAIADFSNEFKNYKKEDEQKIVQSVTWTLTQFSSIDKVKLRINGHELKEMPVGGTPISDDLSRKDGINLETAGVNDLTATHPLTVYYLAENEDSEYYVPVTKRIDNSEKDDITAAINELAKGPSKVSGLLTDFSEDVKLVSKPKIKDGRVTLDFNQSIFGSADEKTKMISSEVLNSIVLTLTEQPDVKSVSVKVNGKSELVNEKGEKLTEPVSRPSQVNTGSFLEHHHHHH”: the protein production result is on record as “not failed”. For the sequence “MGLGMEIGKLIVAFLVLINPFSALSLYLDLTNGHSTKERRKVARTAAVAVFAVIAVFALIGGALLKVLGISVGSFQVGGGILVLLIAISMMNGNDNPAKQNLGAQPETGQARPARNAGAIAVVPIAIPITIGPGGISTVIIYASAAKTYSDIALIIAAGLVVSAICYAILIVAGKVSRLLGATGLTILNRIMGMMLAAVSVEIIVSGLKTIFPQLAG”, the protein production entry is on record as “failed”.

As for “MGLIARLRRWYHLWVWRLRYWWYDTPSGVCAQHWAQGLGVLVFIVQLVRVWVAAALPAPHGAPAQAVYWWVWQLAIAVVAAYVSAALRPKPESVKPQQAQVPTVQDGQAVKHHFGTVWVGDEFILAWKMQGAIPIKTKGAGC”, the protein production entry is on record as “failed”. With “MGLKGYSVGEGGGEIVEVQGGHIIRATGRKDRHSKVFTSKGPRDRRVRLSAHTAIQFYDVQDRLGYDRPSKAVDWLIKKAKTAIDKLELGETTTTTTRQEPVNTKPESPTLVFQRENNDQTQFVAANLDPEDAMKTFFPATTTTNGGGGTNINFQNYPHQDDNNMVSRTTTPPPNLSQDLGLSLHPFQGNNNTVVVPETNNFTTTHFDTFGRISGWNHHDLTMTSSSSSEHQQQEQEERSNGGFMVNHHPHHHHHQPSMMTLLNSQQQQVFLGGQQQQQQRGTLQSSLFPHSFRSWDHHQTTSDHHHHQNQASSMFASSSQYGSHGMMMMQGLSFPNTTRLLHGEEATQPNSSSSPPNSHL” the entry was “failed”; with “MGLKPSEVIELWPVKIFFIILSVTLFYNFALANGALEKLASHLLYKCRKFPQFLPLAIFFAATIIAGLGAGFYTVLAFMAPITLLLCKKTNMNMIIGGMAANYGALAGANFMTSQSGIIFRSLMENTGISSQTAFSYSSGIFVLTLIIPIAVLGIYTLWNRKSNSIVIEDQKPEPFDKKQKQSIFLIILMMSIVLVFPILHLVFPDVKTISFLNSKIDIAFLAITFSLISLLMKLADEKKVIALVPWRTLIMICGVGMLIALGVKLGIITTLSEWLANNVPVWVIPVLLCLISAIMSVFSSTLGVVAPTLFPIVPALALTSGLNPLVLFICIVVGAQSTAISPFSSGGSLIMASAPADIDKTKFFNQLLFKAIPVGVIAALIAIFALKFVI”, “failed”. With “MGLKQTLKEIYYIVADKRLLYFSLSLGISTFAYSLLTYYFPIIMTNLDITTFTIGIIYSIISFLYVVFNIPLGAIVDKIGSKNAVTLSALMAVPLFLLMGTLNPLLFIISLVIFESVIRIVNSLGAHRFMLNYTNAGKAFGVFSLITSILAAIGIMLGGYLLQHSVSTLLFTIIAVLFGISGIIRFLELPKDENKVEVKRSLRLGFKYLKEDKKLLLYLLVSILSSGLSLETYYVTIYFVKDLLLPLTFVGVLYSSYALIMAFLPLLFSVILSKRSNFKNLSILIFSNSVIFFLVPLFTNVYILFLLFYAWTVIVAMESIVDYNVAQSVTKPEIRGTQVALISTFVRIFSVFYNAIVGLLFQITPLYSFYFTGFLGILAIFTIKFAEFIGVLK” the entry was “failed”.

Take “MGLLVILNIVMRIPSIPHEKGYDSFFIHSLANSVANFGVAQWWINWMSVFGLYPYSYASAVPFTLSGMSQLTGIRMEIVILLFCVLLGLFSIFASYSLATVLYDNFLHRFLFAVIFSSSAGTLNLTTWEITTRAQILVFFPFLLYLLFQIIKFKTKFVMLFIVTALLLLATHHFVYMGLFYSGLIFIVALIYKLNRNQPFQIQKTQLRNINLNYMYISSVFFLIILIFLYGSKWGLITSGSRYAWIIDILMITGRNVGLTLLLSIGALIYYIFKKDKLLDEWAILICLIPTLIFSFNQTYGYLTTYLFVTLLGSAGLFNVIKNQKQNRKVVAATVVILIILNITFSTFFVHYRLGIGGGNSEWYMSEETYNTGEWIKENISWDKKAVSNSMQGNRLFASYGGQPVLYRDDISNYMNGFVTLNESKIEKKSPFSKSFYLDNPYVLKSGTTTSGLYSWISQYPITSENSQNFINGNNISYFYDDSLNYNRLFGSLPQSKNSIYNSGRMRIWEN”: the protein production entry is recorded as “failed”.

Regarding “MGLNKEAVKIGFAYVGIVVGAGFSTGQEVMQFFSPYGLWSYIGVILSGLILGFIGRQVAKIGTAFDAQNHESTLDYLFGNKFSKIVDYLLIFFLFGISVTMLAGAGSTFEESFGVPTWLGALIMVIVIYITLLMDFNKIVRALGVVTPFLIILVVIIAAYYLFNGSISFGEVNDAVPDASLVKGILYGINYGGLAFAVGFSTIVAIGGDASRRRVSGAGALFGGIVYTILLALINFALQSEFTKIEDASIPMLTLANDIHPWIGLVLSIIMLAVMYNTILGLMYSFAARFTEPYSKKYHIFIVVMVIVAFALSFVGFAGLINFLYPIMGVVGLVVVIGVLVKYYSRKRQNKKFIA”, the protein production result is listed as “failed”.

Consider “MGLNNARGLSFGLDGALYVTEAGTGGNGACIPSVTGQGGSLCYGTSSTVLKIENGVTSPVLTGLPSIALADGTGAGGARDIQFDTTGKPYILMGYGANPTFRNNLGNIDLGKIIAPDFQTNSWTSIADLANYELVNNPDGGDINSNPLGFFIDGNNLIAVDAGANNLLSVQTNGTNLQTLSVFPQEILTNPVFPPSGTPSTEPGQVPTPTAPPPPQLPIQVVPSSVVRGPDGAYYVSQFTGFPFPEGGAKIYRVGTDGETTIYADGFTQLTDLEFDSAGNLYALQYANQSAWKGNFDGSLIKIAADGTRTTILSGNGLESPNALAIAPNGEIYITNRSDRPGLGQIIRVENSQAVPLEHHHHHH”, for which the protein production entry is “failed”. Take “MGLPAHHIDAFLDRLRTAHYSEVSLRKKRRVLCAFSGWMKHRNIDLIDLDESVTARFMKRMIDASRDRVQRARPTLRQFLAYLRAEAIVCSPTLGSQSAIAHTYRRYLDYLRQDRGLAKNSLLVYGPFIRDFLDSHSAGDGSLLPDAFDAVTIRNHLLARSKGRSAEYTRLMAVALRSFCHFLFLRGDTARDLAGSVPSVRKWRQSTVPTFLTPEQQEALIASADRSTPTGLRDYAILLLLARLGLRAGEIIEIELDDIHWRSGELVVHGKGQMVEHVPLSSEVGAAIATYLRDGRGASASRRVFLRRLAPRVGLAGPAAIGKIVCQAFARVGFRPACRGAAHLFRHGLATTMIRHGASMAEIAEVLRHRSPDSTAIYAKVAFEDLRGVARSWPTAGGAILEHHHHHH”: the protein production result is on record as “not failed”. “MGLPNLSRFREKCCYCYRSIGDGISVCDCGFSFCEKHRGIHLGKSGCRIVFDIKEVGSDLGIEIKNAMLGEEEVEELRRRMEILIKPGDEDERVLSRDEEVRCVHGCPEGPSSIEMGNIGGLKCNLCDVKTRLWVCFSCGYVGCGRMQYGAEGNGHAKSHYEETQHNVFVLVPSLLKEDCEIFCYLCDSNIRSRYNSAENSVTIDFGGADGKTEERSVRKVMSCRGIAEPEFLEKKRAPESKGESVPSPYVGIINSGNTCYISSVIHMVGYAVSKEEFDLEQHFEICYMKNPLECFFCQLMRVLSKMKETKDNEGVNRISILDLIMLIWRDMPMFGKFAQQDAHEFLLFLLEKIREGERSYLIPPITSLFEFEVGRRVSCSGCMDDSTSYESMLMICTFLKGNIRKSVEMFFLPDEWSCECGGKKKVSRFITTLPKYLIIQVGRYSYNNYKVEKIKDKIEMRSIKLGSFMSKDEADRSLVRKLVDSGYPEEDAAKALGIFWNDESKARSLLENHAMMDMRTDSKYRVVGCINHSGDNIKAGHYTWWVYDNGKCFKIDDTTVLNSNVEVLEDGYIFLFK”: the protein production entry was “failed”. The value for “MGLRALSASVNAFECEKQHGDPKSMRINSVPGGRPPRDGRPSRAGALFGCSSAEALYFGSECRPGPSARRFGDNRAHSSLTYWCGMNTFDFGFDDSEDSPHEDPLEDLVAAYENDPSAYFDSGDLEEIASFYFEEGEMETALEVIDRLIELHPYTSDAWMRRGILLNNLGRPEEALEAYEQALDVNPTDTETLINLGITLDSLGRVDEALEAYDEALSINPLHGEALFNLGVTLERDEQLEAAVEAFQRCADVYPEHPEVWYELGYCYDRLGEDEKSVEAYDNHLDIDPYSKDAWYNRGIVLNRLGRFGEAVESYDMALAIHDEFASAYYNRGNAEANQGDLEAAVESYERVLELEGPDAATYYNLALAYEEQGDLRAARTYYEKTLDLKSNYPEAWYGLGCCFDTDERPEEALECFRYAVNLDANVPKFWTARADCAYKVGKLDEALESYQHAVRLDESNEHAWTGYAETLLEKEQPEEALEAYRQALELDPKSANTYFRQAKALLALGRADESIRALKTAFRLDPAKKEEFQKAYPTLYDNDRVRRLLDLDS” was “failed”; that for “MGLRMSESAKPYFAMVCLQFGYAGMNLVTKTVLDRGMSHYVLVAYRNAFATAAIAPFALLSERKVRSKMTFPIFMRIFLLALLGPVIDQNLYYIGLKLTSPTFSSAVSNIVPAITIILATLFRMEKVEMRKVRCLVKVMGTLVTVVGSILMIFYKGPFINFFRSHLTAASSPPTADYLKAAVFLLLASLSWASFFVLQAATLKKYSAHLSMSTMVCFMGTLQSLALAFVMEHNPSALNIGFDMNLLASAYAGIMSSSIAYYVQGLMMQRKGPVFVTAFNPLIVVIVSIMSFFVLGQGIYLGGYVNNNRVIGVVVLMVGVYAVLWGKHVDDDGEETRHEDNVVAVKCCSGNNGLTIMPKIDEADEEDVETGKATSEKESSVPEVVVVVFCSENVHSVSRPN” was “failed”. Take “MGLSAVAVFAISGALDAARQKMDILGFMLIGTATGLGGGTLRDLLLGNVPVFWIREPIWIIVCLVSTAITYFIAPKLASITRALIWMDAVGIALFAVVGTEIALEFGTSPLIAICMGVMTASFGGIARDVLSGSNLTLMNEELYITTTVAGSVMYLWLNTLSLPANYDLIGGFFIAFILRALAIRFHIKLPNHYRKD”: the protein production entry is “failed”.

(Values after a protein production outcome set (Wang et al. 2014).)
